Experimental data published in US20100137208A1, “INTRATUMORALLY ADMINISTERED LACTOFERRIN IN THE TREATMENT OF MALIGNANTNEOPLASMS AND OTHER HYPERPROLIFERATIVE DISEASES” (priority 2002, published 2010).

Assays:
circulating lymphocytes = experiment: Circulating lymphocytes following intratumoral rhLF in tumor-bearing mice; type: in vivo, C3H/HeJ mice
Experimental: Normal C3H/HeJ mice were implanted with one of two mouse tumors following the methodology described in Example 17. Tumors used were SCCVII and RIF mouse tumor cell lines. Following establishment of the tumors in the mice, tumors were injected intratumorally daily for 4 days with 250 or 500 μg rhLF per dose or with vehicle control. Twenty four hours following the last intratumoral injection, animals were sacrificed and the blood examined for lymphocyte populations. The number of circulating lymphocytes were increased by 34% to 56% relative to the placebo treated control animals (Table 14).

metastatic cancer = experiment: Oral rhLF in human patients with metastatic cancer, tumor size by CT; type: in vivo
Experimental: Recombinant human lactoferrin was orally administered to human patients with a range of metastatic cancer types that had failed standard chemotherapy in two different studies conducted in multiple centers in four countries (Argentina, Brazil, Chile, U.S.) RhLF was administered at doses of 1.5 to 9 grams daily in two divided doses in cycles of 14 each with a 14 day gap.
Tumor size progression was monitored through CT scans and tumor markers where available. CT scans were performed at baseline and after each 8-week period once treatment was initiated, and also compared with a pre-baseline scan conducted prior to enrollment in the study. Tumor markers are measured every 4 weeks. Blood samples were collected to measure subclasses of circulating lymphocytes and NK cell activity. Plasma, serum and blood cell extract samples were collected to measure circulating IL-18, IL-1, IL-2, and IL-4, IL-5, IL-10, IL-12 and IFN-γ.

[1] = system: Human squamous cell carcinoma (O12); experiment: Inhibition of tumor growth by rhLF in O12 tumor model in mice; type: in vivo, athymic nude mice
Experimental: Human squamous cell carcinoma (O12) was used. The cells were injected into the right flank of athymic nude mice. rhLF was administered either intratumorally (49 animals, 7 doses ranging from 0.05 μg to 125 μg per dose), intravenously (7 animals, 125 μg/dose) or orally (7 animals 20 mg/dose). Control animals were treated with only the vehicle; no rhLF was administered to the control animals. rhLF was administered twice a day for either five days (intravenous group) or eight days (all other groups) starting 11 days after inoculation with tumor cells to allow formation of established tumors.
The efficacy of treatment was evaluated by measuring the solid tumor size during and at the end of the experiment; the body weights were also determined at the time of tumor measurements.

[2] = blood, 24 h after 4 daily intratumoral doses of 250 or 500 μg, SCCVII or RIF tumors

B1: rhLF: recombinant human lactoferrin, a single chain metal binding glycoprotein (protein, UniProt P02788 20-710, looked up)
Lactotransferrin: GRRRSVQWCAVSQPEATKCFQWQRNMRKVRGPPVSCIKRDSPIQCIQAIAENRADAVTLDGGFIYEAGLAPYKLRPVAAEVYGTERQPRTHYYAVAVVKKGGSFQLNELQGLKSCHTGLRRTAGWNVPIGTLRPFLNWTGPPEPIEAAVARFFSASCVPGADKGQFPNLCRLCAGTGENKCAFSSQEPYFSYSGAFKCLRDGAGDVAFIRESTVFEDLSDEAERDEYELLCPDNTRKPVDKFKDCHLARVPSHAVVARSVNGKEDAIWNLLRQAQEKFGKDKSPKFQLFGSPSGQKDLLFKDSAIGFSRVPPRIDSGLYLGSGYFTAIQNLRKSEEEVAARRARVVWCAVGEQELRKCNQWSGLSEGSVTCSSASTTEDCIALVLKGEADAMSLDGGYVYTAGKCGLVPVLAENYKSQQSSDPDPNCVDRPVEGYLAVAVVRRSDTSLTWNSVKGKKSCHTAVDRTAGWNIPMGLLFNQTGSCKFDEYFSQSCAPGSDPRSNLCALCIGDEQGENKCVPNSNERYYGYTGAFRCLAENAGDVAFVKDVTVLQNTDGNNNEAWAKDLKLADFALLCLDGKRKPVTEARSCHLAMAPNHAVVSRMDKVERLKQVLLHQQAKFGRNGSDCPDKFCLFQSETKNLLFNDNTECLARLHGKTTYEKYLGPQYVAGITNLKKCSTSPLLEACEFLRK
increase in number of circulating lymphocytes relative to placebo (circulating lymphocytes; across CD3+, CD4+, CD8+ populations): 34% to 56
Number of Cells CD3+ (circulating lymphocytes; [2]): 3291
Number of Cells CD4+ (circulating lymphocytes; [2]): 2621
Number of Cells CD8+ (circulating lymphocytes; [2]): 1054
Increase with rhLF, CD3+ cells (circulating lymphocytes; relative to placebo): 56%
Increase with rhLF, CD4+ cells (circulating lymphocytes; relative to placebo): 46%
Increase with rhLF, CD8+ cells (circulating lymphocytes; relative to placebo): 34%
Post Treatment 1 % Growth of tumor (metastatic cancer; Patient # 007, Lung, 7.5 weeks, pretreatment 160% (5.5 weeks)): 13%
Post Treatment 2 % Growth of tumor (metastatic cancer; Patient # 007, Lung, 8.5 weeks, pretreatment 160% (5.5 weeks)): 12%
Post Treatment 2 % Growth of tumor (metastatic cancer; Patient # 102, Ovarian, 8.5 weeks, pretreatment 30% (21 weeks)): −7%
Post Treatment 1 % Growth of tumor (metastatic cancer; Patient # 102, Ovarian, 10.5 weeks, pretreatment 30% (21 weeks)): −5%
Post Treatment 2 % Growth of tumor (metastatic cancer; Patient # 104, Gastric, 7 weeks, pretreatment 25% (5.5 weeks)): −5%
Post Treatment 1 % Growth of tumor (metastatic cancer; Patient # 104, Gastric, 10 weeks, pretreatment 25% (5.5 weeks)): 10%
Post Treatment 1 % Growth of tumor (metastatic cancer; Patient # 106, Melanoma, 11 weeks, pretreatment 24% (19 weeks)): −18%
Post Treatment 2 % Growth of tumor (metastatic cancer; Patient # 204, Breast, 6.5 weeks, pretreatment 40% (8 weeks)): 0%
Post Treatment 1 % Growth of tumor (metastatic cancer; Patient # 204, Breast, 10 weeks, pretreatment 40% (8 weeks)): 0%
patients with stable disease by the RECIST criteria (metastatic cancer; oral 1.5 to 9 grams daily, nine of nineteen evaluable patients, first post-treatment scan): 47%
Inhibition Relative to Placebo (tumor growth) ([1]; Intratumoral, 0.05 μg to 125 μg per dose twice a day for eight days, N = 49, Day 19): 28%
Inhibition Relative to Placebo (tumor growth) ([1]; Intratumoral, 0.05 μg to 125 μg per dose twice a day for eight days, N = 49, Day 28): 46%
Inhibition Relative to Placebo (tumor growth) ([1]; Intravenous, 125 μg/dose twice a day for five days, N = 7, Day 19): 55%
Inhibition Relative to Placebo (tumor growth) ([1]; Intravenous, 125 μg/dose twice a day for five days, N = 7, Day 28): 65%
Inhibition Relative to Placebo (tumor growth) ([1]; Oral, 20 mg/dose twice a day for eight days, N = 7, Day 19): 76%
Inhibition Relative to Placebo (tumor growth) ([1]; Oral, 20 mg/dose twice a day for eight days, N = 7, Day 28): 80%
reduced rates of tumor growth relative to the control ([1]; across intratumoral, intravenous and oral routes): 46% to 80
